Results published in publication PMC6955313 (Proceedings of the National Academy of Sciences of the …, 2019).

Target: the molecule itself
Assay: time-resolved SAXS/diffraction

B1: RsaA_(Full-Length), the 98-kDa surface-layer protein (SLP) from Caulobacter crescentus (natural protein)
chain: MAYTTAQLVTAYTNANLGKAPDAATTLTLDAYATQTQTGGLSDAAALTNTLKLVNSTTAVAIQTYQFFTGVAPSAAGLDFLVDSTTNTNDLNDAYYSKFAQENRFINFSINLATGAGAGATAFAAAYTGVSYAQTVATAYDKIIGNAVATAAGVDVAAAVAFLSRQANIDYLTAFVRANTPFTAAADIDLAVKAALIGTILNAATVSGIGGYATATAAMINDLSDGALSTDNAAGVNLFTAYPSSGVSGSTLSLTTGTDTLTGTANNDTFVAGEVAGAATLTVGDTLSGGAGTDVLNWVQAAAVTALPTGVTISGIETMNVTSGAAITLNTSSGVTGLTALNTNTSGAAQTVTAGAGQNLTATTAAQAANNVAVDGGANVTVASTGVTSGTTTVGANSAASGTVSVSVANSSTTTTGAIAVTGGTAVTVAQTAGNAVNTTLTQADVTVTGNSSTTAVTVTQTAAATAGATVAGRVNGAVTITDSAAASATTAGKIATVTLGSFGAATIDSSALTTVNLSGTGTSLGIGRGALTATPTANTLTLNVNGLTTTGAITDSEAAADDGFTTINIAGSTASSTIASLVAADATTLNISGDARVTITSHTAAALTGITVTNSVGATLGAELATGLVFTGGAGADSILLGATTKAIVMGAGDDTVTVSSATLGAGGSVNGGDGTDVLVANVNGSSFSADPAFGGFETLRVAGAAAQGSHNANGFTALQLGATAGATTFTNVAVNVGLTVLAAPTGTTTVTLANATGTSDVFNLTLSSSAALAAGTVALAGVETVNIAATDTNTTAHVDTLTLQATSAKSIVVTGNAGLNLTNTGNTAVTSFDASAVTGTGSAVTFVSANTTVGEVVTIRGGAGADSLTGSATANDTIIGGAGADTLVYTGGTDTFTGGTGADIFDINAIGTSTAFVTITDAAVGDKLDLVGISTNGAIADGAFGAAVTLGAAATLAQYLDAAAAGDGSGTSVAKWFQFGGDTYVVVDSSAGATFVSGADAVIKLTGLVTLTTSAFATEVLTLA
- binding result: binds
